Measured values from patent US20260015420A1 (CENTESSA PHARMACEUTICALS UK, published 2026).
Where two headings read alike, the source gives them in different places.

T1: cynomolgus monkey CD47-Fc (cynomolgus monkey, UniProt Q08722 19-139 (human entry), limits assumed)
T1 construct: also called cCD47; cyno CD47-Fc; not shown: Fc part
T1 chain: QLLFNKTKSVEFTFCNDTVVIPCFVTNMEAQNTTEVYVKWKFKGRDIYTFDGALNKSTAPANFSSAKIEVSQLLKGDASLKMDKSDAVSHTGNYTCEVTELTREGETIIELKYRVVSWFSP

T2: Cyno CD47 (Biacore steady state analysis) (cynomolgus monkey, UniProt Q08722 19-139 (human entry), limits assumed)
T2 construct: The construct on the Biacore chip is not described (possibly CD47-Fc)
T2 chain: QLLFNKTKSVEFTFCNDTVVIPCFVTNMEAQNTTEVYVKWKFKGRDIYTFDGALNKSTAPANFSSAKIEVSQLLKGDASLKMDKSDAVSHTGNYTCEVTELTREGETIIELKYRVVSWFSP

T3: cynomolgus monkey CD47 on cyno CD47-transfected CHO-K1 cells (cynomolgus monkey, UniProt Q08722 19-323 (human entry))
T3 construct: CHO-K1 cells stably transfected with cyno CD47 full-length cDNA; also called cyno CD47+ cells; cyno CD47+CHO-K1
T3 chain: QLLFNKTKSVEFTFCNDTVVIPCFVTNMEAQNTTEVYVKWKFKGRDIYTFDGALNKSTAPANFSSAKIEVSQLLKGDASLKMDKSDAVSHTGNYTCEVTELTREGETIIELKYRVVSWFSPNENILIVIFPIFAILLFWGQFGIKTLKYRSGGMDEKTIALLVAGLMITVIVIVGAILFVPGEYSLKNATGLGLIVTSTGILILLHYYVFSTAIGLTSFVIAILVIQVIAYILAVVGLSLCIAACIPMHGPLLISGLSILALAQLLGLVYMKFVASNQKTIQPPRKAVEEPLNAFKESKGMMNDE

B1: F-E5, human IgG1null (antibody, V domains shown)
VH: EVQLVQSGAEVKKPGESLKISCKGSGYSFTNYNIHWVRQMPGKGLEWMGTIYPGNSDTSYNPKFQGQVTISADKSISTAYLQWSSLKASDTAMYYCARGGKRAMDYWGQGTLVTVSS
VL: DIVMTQSPLSLPVTPGEPASISCRSSQSLLHSNGNTYLGWYLQKPGQSPQLLIYKGSNRFSGVPDRFSGSGSGTDFTLKISRVEAEDVGVYYCMQASQVPYTFGQGTKLEIK
notes: framework limits derived from the Unified CDR definitions; IgG1null; also called Clone F-E5
B2: FAB VH1.8/1.6DI (Fab, V domains shown)
VH: QVQLVQSGAEVKKPGASVKVSCKASGYTFTNYAMHWVRQAPGQRLEWMGTIYPGNDDTKYNQKFQGRVTITADTSASTAYMELSSLRSEDTAVYYCARGGFRAMDYWGQGTLVTVSS
VL: DIVMTQSPLSLPVTPGEPASISCRSSQSLLHSNANTYLGWYLQKPGQSPQLAIYKGSNRFSGVPDRFSGSGSGTDFTLKISRVEAEDAGVYYCFQASHVPYTFGQGTKLEIK
notes: Fab expressed as soluble monomer; VL carries the two deimmunising alanine substitutions; also called VH1.8/VL1.6-DI Fab
B3: VH1.8/VL1.5, human IgG1null (antibody, V domains shown)
VH: QVQLVQSGAEVKKPGASVKVSCKASGYTFTNYAMHWVRQAPGQRLEWMGTIYPGNDDTKYNQKFQGRVTITADTSASTAYMELSSLRSEDTAVYYCARGGFRAMDYWGQGTLVTVSS
VL: DIVMTQSPLSLPVTPGEPASISCRSSQSLLHSNAYNYLGWYLQKPGQSPQLLIYKGSNRFSGVPDRFSGSGSGTDFTLKISRVEAEDVGVYYCFQASHVPYTFGQGTKLEIK
notes: IgG1null; also called Clone VH1.8/VL1.5
B4: VH1.8/VL1.4, human IgG1null (antibody, V domains shown)
VH: QVQLVQSGAEVKKPGASVKVSCKASGYTFTNYAMHWVRQAPGQRLEWMGTIYPGNDDTKYNQKFQGRVTITADTSASTAYMELSSLRSEDTAVYYCARGGFRAMDYWGQGTLVTVSS
VL: DIVMTQSPLSLPVTPGEPASISCRSSQSLLHSNAYNYLGWYLQKPGQSPQLLIYKGSNRFSGVPDRFSGSGSGTDFTLKISRVEAEDVGVYYCFQASQVPYTFGQGTKLEIK
notes: IgG1null; also called Clone VH1.8/VL1.4
B5: FAB VH1.8/1.1 (Fab, V domains shown)
VH: QVQLVQSGAEVKKPGASVKVSCKASGYTFTNYAMHWVRQAPGQRLEWMGTIYPGNDDTKYNQKFQGRVTITADTSASTAYMELSSLRSEDTAVYYCARGGFRAMDYWGQGTLVTVSS
VL: DIVMTQSPLSLPVTPGEPASISCRSSQSLLHSNGNTYLGWYLQKPGQSPQLLIYKGSNRFSGVPDRFSGSGSGTDFTLKISRVEAEDVGVYYCFQASHVPYTFGQGTKLEIK
notes: Fab expressed as soluble monomer; also called VH1.8/VL1.1 Fab
B6: E-A1, human IgG1null (antibody, V domains shown)
VH: EVQLVQSGAEVKKPGESLKISCKGSGYSFTNYNIHWVRQMPGKGLEWMGTIYPGDSDTRYNPKFQGQVTISADKSISTAYLQWSSLKASDTAMYYCARGGYRAEDYWGQGTLVTVSS
VL: DIVMTQSPLSLPVTPGEPASISCRSSQSLLHSNGNTYLGWYLQKPGQSPQLLIYKGSNRFSGVPDRFSGSGSGTDFTLKISRVEAEDVGVYYCMQGSHVPYTFGQGTKLEIK
notes: IgG1null; also called Clone E-A1
B7: D6 IgG, human IgG1null (antibody, V domains shown)
VH: EVQLVQSGAEVKKPGESLKISCKGSGYSFTNYNIHWVRQMPGKGLEWMGTIYPGNSDTSYNPSFQGQVTISADKSISTAYLQWSSLKASDTAMYYCARGGVRAMDYWGQGTLVTVSS
VL: DIVMTQSPLSLPVTPGEPASISCRSSQSLLHSNGNTYLGWYLQKPGQSPQLLIYKGSNRFSGVPDRFSGSGSGTDFTLKISRVEAEDVGVYYCMQASQVPYTFGQGTKLEIK
notes: The text prints both D6 and D-A6 for what reads as the same clone; IgG1null; also called D-A6 IgG; Clone D6
B8: VH1.8/VL1.3, human IgG1null (antibody, V domains shown)
VH: QVQLVQSGAEVKKPGASVKVSCKASGYTFTNYAMHWVRQAPGQRLEWMGTIYPGNDDTKYNQKFQGRVTITADTSASTAYMELSSLRSEDTAVYYCARGGFRAMDYWGQGTLVTVSS
VL: DIVMTQSPLSLPVTPGEPASISCRSSQSLLHSNANTYLGWYLQKPGQSPQLLIYKGSNRFSGVPDRFSGSGSGTDFTLKISRVEAEDVGVYYCFQASQVPYTFGQGTKLEIK
notes: IgG1null; also called Clone VH1.8/VL1.3
B9: VH1.8/VL1.6, human IgG1null (antibody, V domains shown)
VH: QVQLVQSGAEVKKPGASVKVSCKASGYTFTNYAMHWVRQAPGQRLEWMGTIYPGNDDTKYNQKFQGRVTITADTSASTAYMELSSLRSEDTAVYYCARGGFRAMDYWGQGTLVTVSS
VL: DIVMTQSPLSLPVTPGEPASISCRSSQSLLHSNANTYLGWYLQKPGQSPQLLIYKGSNRFSGVPDRFSGSGSGTDFTLKISRVEAEDVGVYYCFQASHVPYTFGQGTKLEIK
notes: IgG1null; also called Clone VH1.8/VL1.6
B10: IGHV5-51 graft IgG (IGKV2-28/IGHV5-51 graft), human IgG1null (antibody, V domains shown)
VH: EVQLVQSGAEVKKPGESLKISCKGSGYSFTNYNMHWVRQMPGKGLEWMGTIYPGNDDTSYNQKFQGQVTISADKSISTAYLQWSSLKASDTAMYYCARGGYRAMDYWGQGTLVTVSS
VL: DIVMTQSPLSLPVTPGEPASISCRSSQSIVYSNGNTYLGWYLQKPGQSPQLLIYKVSNRFSGVPDRFSGSGSGTDFTLKISRVEAEDVGVYYCFQGSHVPYTFGQGTKLEIK
notes: IgG1null; also called IGHV5-51 grafted IgG; IGHV5-51-grafted IgG
B11: FAB VH1.8/1.6 (Fab, V domains shown)
VH: QVQLVQSGAEVKKPGASVKVSCKASGYTFTNYAMHWVRQAPGQRLEWMGTIYPGNDDTKYNQKFQGRVTITADTSASTAYMELSSLRSEDTAVYYCARGGFRAMDYWGQGTLVTVSS
VL: DIVMTQSPLSLPVTPGEPASISCRSSQSLLHSNANTYLGWYLQKPGQSPQLLIYKGSNRFSGVPDRFSGSGSGTDFTLKISRVEAEDVGVYYCFQASHVPYTFGQGTKLEIK
notes: Fab expressed as soluble monomer; also called VH1.8/VL1.6 Fab

Assays:
[1] = target: Insulin; test: ELISA on coated insulin, OD450
Sequence of Insulin (P01308 25-54, chain 1 of 2): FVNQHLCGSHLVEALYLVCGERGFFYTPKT
Sequence of Insulin (P01308 90-110, chain 2 of 2): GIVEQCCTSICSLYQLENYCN

[2] = target: T4, human CD47-Fc (human, UniProt Q08722 19-139); test: direct ELISA, coated human CD47-Fc, OD450
T4 construct: also called hCD47; human CD47-Fc protein; not shown: Fc part

[3] = target: T4, human CD47-Fc; test: HTRF competition with labelled h5F9G4 IgG1 (m11) for human CD47-Fc, 665/615 ratio
[4] = target: T1, cynomolgus monkey CD47-Fc; test: direct ELISA, coated cyno CD47-Fc, OD450
[5] = target: T2, Cyno CD47 (Biacore steady state …); test: Biacore SPR, steady state affinity, monomeric Fab
[6] = target: T4, human CD47-Fc; test: HTRF epitope competition; competitor Tb-labelled h5F9G4 IgG1 on biotinylated human CD47-Fc
Target sequence in this assay (Q08722 19-139 limits assumed): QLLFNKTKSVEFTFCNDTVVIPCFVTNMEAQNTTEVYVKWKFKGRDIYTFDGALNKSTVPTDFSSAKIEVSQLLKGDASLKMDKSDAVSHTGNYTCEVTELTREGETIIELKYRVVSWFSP

[7] = target: T4, human CD47-Fc; test: direct ELISA, coated human CD47-Fc, OD450; remark: listed apart in the source
Target sequence in this assay (Q08722 19-139 limits assumed): as above

[8] = target: T3, cynomolgus monkey CD47 on cyno …; test: flow cytometry, CHO-K1 cells transfected with cyno CD47, MFI
[9] = target: T4, human CD47-Fc; test: competition ELISA: human CD47-Fc binding to plate-bound human SIRPa-Fc, % binding
Target sequence in this assay (Q08722 19-139 limits assumed): as above

[10] = target: T4, human CD47-Fc; test: HTRF competition with labelled h5F9G4 IgG1 (m11) for human CD47-Fc, 665/615 ratio; remark: listed apart in the source
[11] = target: T4, human CD47-Fc; test: competition ELISA: human CD47-Fc binding to plate-bound human SIRPa-Fc, OD450
[12] = target: T1, cynomolgus monkey CD47-Fc; test: competition ELISA: cyno CD47-Fc binding to plate-bound human SIRPa-Fc, OD450

Molecule	IC50 [6]	EC50 (read off the curve) [7]	binding result [8]	IC50 (read off the curve) [9]	also measured
Bococizumab human IgG1 analogue (antibody)	–	–	–	–	EC50 (read off the curve) [1]: 0.02 µg/mL
B1	–	–	–	–	EC50 (read off the curve) [2]: ~0.06 µg/mL; IC50 (read off the curve) [3]: ~4 µg/mL; binding result [4]: binds
B2	–	–	–	–	Kd [5]: 27.8 nM
B3	0.911 µg/mL	~0.06 µg/mL	binds	~0.4 µg/mL	–
B4	2.94 µg/mL	~0.06 µg/mL	binds	~2 µg/mL	–
B5	–	–	–	–	Kd [5]: 17.9 nM
B6	–	–	–	–	IC50 (read off the curve) [3]: ~1 µg/mL; binding result [4]: binds
B7	–	–	–	–	EC50 (read off the curve) [2]: ~0.09 µg/mL; IC50 (read off the curve) [10]: ~4 µg/mL; binding result [4]: binds
B8	0.928 µg/mL	~0.06 µg/mL	binds	~0.4 µg/mL	–
B9	0.56 µg/mL	~0.06 µg/mL	binds	~0.3 µg/mL	–
B10	–	–	–	–	IC50 (read off the curve) [11]: ~4 nM; IC50 (read off the curve) [10]: ~0.3 µg/mL; IC50 (read off the curve) [12]: ~5 nM
B11	–	–	–	–	Kd [5]: 25.9 nM
